The source of these data is patent US20180355060A1 (published 2018).

Substitutions are numbered along the chain they refer to. Read-outs that look alike come from different tables or passages of the source.

The target in assay [1] is T1, cynomolgus monkey TG2 (cynomolgus monkey, UniProt A0A2K5VXI8 2-687).
T1 chain: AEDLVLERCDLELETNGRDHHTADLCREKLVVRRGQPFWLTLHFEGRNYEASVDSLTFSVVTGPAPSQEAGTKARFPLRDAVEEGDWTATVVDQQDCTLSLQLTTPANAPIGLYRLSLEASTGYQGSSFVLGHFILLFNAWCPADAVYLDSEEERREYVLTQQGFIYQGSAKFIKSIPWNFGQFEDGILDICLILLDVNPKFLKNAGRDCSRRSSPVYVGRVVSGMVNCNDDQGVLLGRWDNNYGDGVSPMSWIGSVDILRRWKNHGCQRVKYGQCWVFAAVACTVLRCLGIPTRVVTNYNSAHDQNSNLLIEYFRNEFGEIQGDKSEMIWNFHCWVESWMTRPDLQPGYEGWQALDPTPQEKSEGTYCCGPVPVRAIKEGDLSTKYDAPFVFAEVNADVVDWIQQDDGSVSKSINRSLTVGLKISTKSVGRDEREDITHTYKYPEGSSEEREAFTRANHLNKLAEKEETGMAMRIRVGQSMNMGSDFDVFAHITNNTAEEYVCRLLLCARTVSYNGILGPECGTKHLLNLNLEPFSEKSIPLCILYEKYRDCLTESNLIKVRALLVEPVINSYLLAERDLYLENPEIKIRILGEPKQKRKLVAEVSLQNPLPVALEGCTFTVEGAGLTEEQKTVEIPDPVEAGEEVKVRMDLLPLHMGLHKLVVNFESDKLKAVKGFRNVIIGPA
As to the kind of experiment: ELISA. (In general: In an ELISA, binding on a coated surface is turned into a signal by an enzyme label.)

The target of assay [2] is T2, human transglutaminase type 2 (TG2) (UniProt P21980 1-687).
T2 chain: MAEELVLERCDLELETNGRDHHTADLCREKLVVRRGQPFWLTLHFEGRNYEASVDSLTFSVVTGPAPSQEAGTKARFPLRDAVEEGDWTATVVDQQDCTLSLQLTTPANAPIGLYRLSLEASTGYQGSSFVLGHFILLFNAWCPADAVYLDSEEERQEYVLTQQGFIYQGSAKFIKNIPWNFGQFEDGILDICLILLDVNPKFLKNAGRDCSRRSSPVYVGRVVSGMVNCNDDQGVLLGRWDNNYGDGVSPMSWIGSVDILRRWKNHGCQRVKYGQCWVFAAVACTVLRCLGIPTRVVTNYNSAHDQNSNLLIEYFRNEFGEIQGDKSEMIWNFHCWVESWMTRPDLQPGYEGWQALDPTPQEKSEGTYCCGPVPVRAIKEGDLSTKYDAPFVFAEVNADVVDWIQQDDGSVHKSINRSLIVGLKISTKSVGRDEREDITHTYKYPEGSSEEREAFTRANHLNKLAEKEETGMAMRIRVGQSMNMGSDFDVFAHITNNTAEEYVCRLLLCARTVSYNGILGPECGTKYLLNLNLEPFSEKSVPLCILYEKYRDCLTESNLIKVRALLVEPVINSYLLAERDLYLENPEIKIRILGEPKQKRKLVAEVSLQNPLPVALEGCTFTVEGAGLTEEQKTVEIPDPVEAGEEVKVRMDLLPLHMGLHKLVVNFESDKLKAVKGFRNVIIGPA
As to the kind of experiment: enzyme inhibition.

In assay [3] the target is T2, human transglutaminase type 2 (TG2). Nature of the assay: ELISA.
The target is the same in assay [4]. As to the kind of experiment: enzyme inhibition.
The target is the same in assay [5]. As to the kind of experiment: ELISA.
Assay [6] shares this target. Nature of the assay: enzyme inhibition.
Assay [7] addresses T1, cynomolgus monkey TG2. Nature of the assay: ELISA.
The target in assay [8] is T1, cynomolgus monkey TG2. As to the kind of experiment: enzyme inhibition.
For assay [9], the target named is T2, human transglutaminase type 2 (TG2). As to the kind of experiment: enzyme inhibition.

B1: cAB003 chimeric anti-TG2 antibody (murine AB1 variable regions, human IgG1 and human kappa) (antibody, V domains shown)
VH: EVQLVESGGGLVKPGGSLKLSCAASGFTLSSSAMSWVRQTPDRRLEWVATISVGGGKTYYPDSVKGRFTISRDNAKNTLYLQMNSLRSEDTAMYYCAKLISLYWGQGTTLTVSS
VL: DIKMTQSPSSMYASLGERVTITCKASQDINSYLTWFQQKPGKSPKTLIYRTNRLFDGVPSRFSGSGSGQDFFLTISSLEYEDMGIYYCLQYDDFPYTFGGGTKLEIK
Regarding B1, the figures for the EC50 in assay [1] and in assay [3] were 0.0568 nM and 0.0614 nM, respectively. Besides, the IC50 (usually the concentration that gives 50% inhibition) in [2] stood at 1.17 nM.

B2: DC1 murine monoclonal anti-TG2 antibody (antibody, V domains shown)
VH: EVQLVESGGGLVKPGGSLKLSCAASGFTLSTHAMSWVRQTPEKRLEWVATISSGGRSTYYPDSVKGRFTISRDNVKNTLYLQLSSLRSEDTAVYFCARLISTYWGQGTTLTVSS
VL: B1 VL with K3T, M11I, T46I, R50L, T51V, F55V, F71Y, F72A
Turning to B2, a half-maximal response in [4] (EC50) required 0.571 nM.

B3: hBB001AA humanised BB7 antibody (BB7 RHA with BB7 RKA) (antibody, V domains shown)
VH: EVQLLESGGGLVQPGGSLRLSCAASGIIFSSSAMSWVRQAPGKGLEWVATISSGGRSTYYPDSVKGRFTVSRDSSKNTLYLQMNSLRAEDTAVYYCAKLISPYWGQGTLVTVSS
VL: DIKMTQSPSSLSASVGDRVTITCKASQDINSYLTWFQQKPGKAPKTLIYLTNRLMDGVPSRFSGSGSGQEFLLTISSLQPEDFATYYCLQYVDFPYTFGQGTKVEIK
In the case of B3, the concentration for a half-maximal effect (EC50) (commonly the concentration needed to bring the measured effect to its halfway point) in assay [5] was roughly 0.0474 nM; in assay [7] it was 0.0561 nM. Besides, the figures for the half-inhibitory concentration (IC50) in assay [6] and in assay [8] were 5.99 nM and 8.51 nM, respectively.

B4: hBB001BB humanised BB7 antibody (BB7 RHB with BB7 RKB) (antibody, V domains shown)
VH: B3 VH with I27F, I28T, A49S, V70I, S74N
VL: B3 VL with K3Q, T46S, Q69T, E70D, L72F
As to B4, the values for the concentration giving a half-maximal response (EC50) in [5] and in assay [7] were 0.0627 nM and 0.0738 nM, respectively. In addition, it took 0.985 nM to reach half-maximal inhibition in [6] (IC50).

B5: DH2 murine monoclonal anti-TG2 antibody (antibody, V domains shown)
VH: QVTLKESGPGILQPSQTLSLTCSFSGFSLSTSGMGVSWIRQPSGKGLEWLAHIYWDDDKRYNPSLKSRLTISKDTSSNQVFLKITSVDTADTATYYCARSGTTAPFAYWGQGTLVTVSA
VL: QIVLTQSPAIMSASPGEKVTMTCSASSSVSYMYWYQQKPGSSPRLLIYDTSNLASGVPVRFSGSGSGTSYSLTISRMEAEDAATFYCQQWSSSPLTFGAGTKLELK
Turning to B5, the EC50 in assay [9] is roughly 7000 nM.

B6: DD9 murine monoclonal anti-TG2 antibody (antibody, V domains shown)
VH: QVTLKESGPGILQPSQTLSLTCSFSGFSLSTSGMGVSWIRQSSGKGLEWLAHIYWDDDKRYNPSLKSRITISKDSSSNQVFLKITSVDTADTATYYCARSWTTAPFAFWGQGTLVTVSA
VL: B5 VL with S30D, E78G, F85Y, S91N
With B6, the EC50 in assay [4] was 564 nM.
